Here are results for 47 sequences from the NTF2 design screens of Basanta et al. (2020).

The data set can be described thus: protease stability score; higher = more stable; yeast display proteolysis, trypsin and chymotrypsin.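 Note: relative to predicted unfolded state with 0 unfolded-like and 1 meaning tenfold more protease.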
“DETEEEVREAIEKFIQDLHTGNWHAYNEMLDPNVRVIVGDKHLHGRERVLEWEEEFMRKVKGATYRIDHMDVIDGRINLHFRITIGDKSREFNVHSLKINGQWHTKEVRVNIL” gave a protease stability score of 1.06. To “HEEEHVAKEIVEILYHAIITGDEDLIKELMDPNVRLDINGKQVHGRDEWIKELRHLRFRHMKLEVKAVEVVDGRIHSDVILHVDGHFDGRTRRLTIEVHWIIFKINGRWHIQSVEIR” belongs 2.31; to “DDVEKDARWLVDELIHLLETGDEDTLLKLADPNTRIEIGDFHFHGRRDLKRILHEMRVKLDHLRIEHLDAQGEWIYIQFHYHQTINVNGRVVHEQRRVELESIKINGRWTIHFFKVK”, 1.28; to “SEDEEAVRRLIRMLVEWESTGDFESVLRLFDPHARYRIDGVDLHGRHAWERLYKEIRINSVRVKRIEMQGDKVHVDSRLRGEIDGRETDLEVEIIIRKVNGRWVIEEVRIH”, 2.2. Sequence “DKLDKLLREMLELFNHLLKTGDWDTITKLVDPNVRIDINGQELHGMELILEWWLRLGIRNEHERERDRDSQGEFMHVEGHRHIRINGQSTRFDTILHIEIIDGRIKDIKVNLI” showed a protease stability score of 1.12.

The sequence “SEDEEEATHLSRVLIELLKTGDEEMLEHLADPNDRNDFNGRVKHGRELVTKMLRKLMTDLGIDHIEHVTLRRLEVQGEWVKFNFEIIGRVNGRELSFRVRFIMEKVDGKWRLSERHTI” showed a protease stability score of 1.71. In the case of “DEDEEMVEKALELMAETHETGDEDTLHDFFDPHTRMELQIGDKTIRDHGRHAMHWLLRILGINHIEIHHRTVRLINGRIHLHINGSINVNGQEIESRIHIYSEKIDGRWRVTRLEYRFH” it was 1.31; in that of “DELEKFIKYVATRLVHDWMTGDEETSKKLLDPHYKTRILYDGRYTELHGREIFVKFVRELLEEIRIHLEVDRIRPIGDKVLLDTRLEIRIGDKRIERSTELHYVVINGRVDQMELVFI”, 1.32; in that of “SDEEHLAERASKEWRHSVRTGDEHQLHEMIDPHVKLIVGDKEFHGREHFLEHLKHLRIKNVDIKRIRIIGDKVEIDSELHGHVNGVEIRTREHIHIEKIDGRWVITEVIWV”, 0.955. Sequence “DEDTRMNELFVRLFYELLTTGDEEHIHEMFDPHARLDFDGQQYHGREDAVRKMHELSRRLGIKHIEIREFRKVGDWANLHGKIYVNGQEYELHVILHKVDGRWITRDIRIK” came in with a protease stability score of 1.3. In turn, “TEDLHQYHEFLEEMIRWLRTGDWEAKHRNADPNVRLDFNGVDFHGMEIVAKIEMELRRRVDHIELEVKRSEIVNGRVHIDQVYHIEYNGRSYEVKSELIVKKVNGKWLIKEERVR” yielded a protease stability score of 0.322. Take “SEDEEQAERFARELIEVLRTGNEELLTHLLDPNTMLRVNGVEHHGREAYLHYTREMRYHHIDIEHFDVQGDKLYLHNRMDGQVDGRRVDVRIRIQVEKVNGRWKLRQERHQ”: the protease stability score is 0.524. In the case of “DEDEEDARRFLEILQHHMRTGDWDSLYRLLDPHVRLHIGDKHHHGREEIRKHLHHLRFKELENRHITVYDGRMHVHGRIQGKFDGRDDKYESEIVVLKVDGQWLIEEIHVK” it was 2.06; in that of “SEDDEYSELFVKTWFEILRTGDEEKIRRMLDPDARSTINGKDLHGRERIEEHLHELFLRLGLSNVKVHLHDYRFIGDKLHLHGKLTINGQEFDTKVDAWKFNGRWFMHQIHLR”, 1.39. For the sequence “TEEYRHVEEVIRMTFELLRTGNEQELEDRADPHAKSNVNGQEIHGRERFTRWFLEMITHLGVKHVRVRHYTVVNGRVIVHLEFDFDGVKIDYTVVIWKINGKWFIKISHEEHH”, the protease stability score worked out at 2.09. On to “SEDEHIADMVIKELQHILNTGDEDRLRDLMDPNTRFDINGRHIHGREDVAHWLAREVLEMRVEFHLEHWDIVDGRIHIHSNVLIIVGNKIIRIKTEILIIKIDGRWYVEELKFR”, for which the protease stability score is 1.36. To “SDWDEWTKRMLDILIEALETGDEEVLSRLIDPNMRLDINGQEFHGREVILRHLITEIQRADHVEFRIEDRDLIDGRVYMEVEKIIHINGVEFRHHVLIIIEKVDGRWYINSVHVR” belongs 2.46. To “SDEQRDVKFMLDQWLRSIETGNEDEIRHLVDPNVRSDINGQTHHGRDEYVRHMVEIRVILESIELHDLRWQGDKIDVDAIVQGTIIVNGRKTRFIERVHLHSVKVNGRWEIKEYRVV” belongs 1.42; to “SEHEREAREHMEIFRRAFRTGDEQFLTELADPNVRVDVNGVELHGRENFLRVMRHIRFKDIRIKRSREINGVLFIDVRERGIVNGQETTFESEIIILKVDGRWIIEELIIL”, 1.39. To “DEDERVMRTLLELLLRSHNTGDEDSYKQLLDPDTRVHVDGVDFHGMEFARTLARHWRVKHVELKDVRSQGNKIEADIHTVGVINGQELRTETHIITEKVNGRWVLHSISIR” belongs 1.46.

Sequence “SEDEKENREWKRLLIEAHMTGDEHFLSRQLDPNVLVIVNGQEKVGREEAERELKEWLDKVKGLRIRRFDTESEEFVDGRLHSNLKLDGIINGRRTELDIHVISVKIDGQWQIRQIFFV” registered a protease stability score of 1.44. “NEDEEAHHKLIKEYSRLVDTGDWRSLRRYLDPDYRLRVDGVDIVGRDELHRILEQMLDRVDHLHLNIERHRIQGDFLISDVKHHYEFNGKHVERKVIIYIWKFDGRWIMRYTEVL”: the protease stability score stood at 1.02. On to “SEEEEILRHIVELLLHILITGNEHALRTLLDPNARVDINGVTIHGREQESHIILEEVERIDHMDLKIEHLHVQGDKVHTKVERTIHIGEKEIRIEEEINLVIFNGRLRVSILHVH”, for which the protease stability score turned out to be 0.97. Sequence “SEMEKLYRDLYKRFLDNWVTGDEEKLIKYADPNTRLHVGDKHHHGMEHISHLFLEFVYRADHHEYRIDRLEVVDGVAISDGRMREEIGEFELRFDVEIRIVIVNGRLKWIEVSFK” showed a protease stability score of 0.839. In turn, “SDEEERTRTAIEQLIELRLTGDEEMLHKLVDPHYRLHFIVDGRDLDFIGWRDFQRIFHEETKKFKNMRIEWRHVDIVNGVVTVHIELKIGDKRDEIDLFFFKINGRWILKSVEVHRR” had a protease stability score of 1.47. The sequence “TEEDEFWERYVQLLRELWITGDEETWKNLADPNTRLHINGVTAHGREEVEHVYKKILEDLGIDVRHIHRIDVQGDKMRIDSRNNIDGQIFRLHIENHFVNGRLQFIRMEVH” had a protease stability score of 1.25. To “DEDTKRAEHIMRMFIHSMLTGDEKTTHELLDPEARVNINGVDLHGRETLLEHHHRWLHELRIEDMHTEHYEVQGDYVHLHTREVVVVDGRRIELTTTFLLLKVDGRWVWTHIHVK” belongs 0.997; to “DELETYSRRMFQLLLHIMETGDEEKWDHLADPNARLDIDGREFHGREIVSEVHSQIRSELGVDHHQITHFRLHTFDGKVEVEMEVIDKFDGRDVRSRIHIIVIKINGKWFLHEMSYDHG”, 1.35.

Take “DEERKFWHELAELLFHIHLTGDEDMLRHLLDPHVRSDINGVELHGREQAAEHFHKLMKTLGVKHIHHKRMHTIGDKTIIHGESEVDGRILHVHNHFWVVNGKVEEVKMHIE”: the protease stability score was 0.495. In the case of “DEEKETAHEIHRILIKAWITGDEDTLNELLDPNVRIDINGVDTHGMEELKRVFEEHKKEIRWKDVRPRHIHVINGQIHSDTDHNGVVNGVTRTRKAHWIIVVIDGKVHSIKFIIH” it was 1.29; in that of “DELKEISDEIVLMFDRAIRTGDEHTMKKLLDPNYLLRVDGVDIVGRERFTEIIRQFDHVDYESHRIRDVSIQGDKIDVDSETDIHFTYNGKRERRTYRVRIIILKINGRWRIHEVHLH”, 1.77; in that of “SEYEEFLKEALRILIDDILTGDWRLVYKLFDPETRLNVNGQEIHGRDDVVHHLTHIAREWRMDVKVKEYNVFDGQIHMFGHLQLEFDGREYRRRVELIIIKFNGQWHLRQVVKH”, 1.58.

With “DEEEDHERHLVERTIHSLETGDWHETHELLDPHVRIQIVQGDKSLDLHGREAAVKFFLDWLRRVPNMRLEFKRIEDYDGVSHIDGVLRIGDKEMRFEIEIHVFNGVVKRMHIRMH”, the protease stability score is 1.38. To “DEDEELAKHAIKHWLEALETGDEKRLKELIDPNTRLIVNGQEFHGMESVSKKLIEEIERIPNVTLELHDVRIYNGRVNTDVTVRYNGRTITLHLIILKVNGKWIMESIQLH” belongs 1.78. For “TEDEEFAFEIIRLFHEALLTGDEETLHHLVDPNARMQIGEFTTHGRSMVKFFNKRFDHWEMRVEFRRIHYIGDKVFVDTRIRILIEYNGRFIETSVEQRIVTRKIDGKWQITRLEIV”, the protease stability score worked out at 1.05.

In turn, “RDSEEKDKIFLSIVESAILTGDPETSEKMADPNVRIDFNGKDLVGREDYHRFVKRWLEEARFHKLVIHELRHVDGRMDSHTQEIVDIDGRRYTHDTHIIMLKIDGRWILHSKTVR” came in with a protease stability score of 0.986. In the case of “SEWEKQLRHMVHLVLLAVRTGNEHLLNELLDPDTRAVFNGVESVGREDMWRMLKHLRIERVRVHDERHDDQGNKARFILLGETQVNVNGKVLETHTEIEIILIKVDGQWTFETLTFRIT” it was 1.55; in that of “TEEEEIVTRALDKFREDLDTGDWKSIKHNFDPDVRLVFENHSTHGRELAVTIAEHIFKRFDYVHDSRNEHIKFQGDKVEWHSHYDGTINGRRMEVRILLIVRKYNGVWIIEEYLIV”, 1.47; in that of “DEDEKEAEHAAKLFSRHFRTGDEDLLREMIDPNVRIRIGDKELHGWEEFTRLMREWRFDDVHVEHIHVQGDKVIVDSILHVIINGRHIDFRSHIYIEKIDGRWVIRSFEIR”, 0.651. In the case of “DDEEEINRRIAETFINNVKTGDEHSMREMMDPNTRLIVGDKHNHGWKEVEKFWREWRRHAGVDHIHVDDVRVIGNKVEIDETINQGDKFRDVRISIITINGRITELRIEIR” it was 1.49; in that of “SEDEKIMEEASRLFMHLFLTGDEETLMRLADPNTRIVFNGQDHHGREEWTKVLRDLGIKHSHIEHVNLRTQGDKVDLNVHVNVHIDGRTRRYLIIVHATKINGRWEIKEIQVHEH”, 0.989. For “DESKEAAELFIKQVERSTKTGDERLFEEFIDPHMRLEIGEFDYHGREFLHITLRDLGMEIRTFIVKDIKVQGDKARIRVEEHIQVNGVEQRRQVKYVIDKFDGRWEIHSVHFD”, the protease stability score stood at 0.392. In the case of “TEDEKVMKEAVEIQIHMFRTGNWDSLHKLVDPNARLDVDGREFHGREDFVRFIKKEAHEARVEDVIFRHVTTQGDKIVTHFDVRGVINGVEEIRKVTVFLRKINGRWLIESEEID” it was 0.737.

Consider “TERDELMKRFAHIFYHWLETGDEESIKKMLDPDTLSIVDGVNLHGRDEHSRWHVELHENLGIDQIHYRLRRVEVQGDKARIDGEEEINGKHVKLRIELEVINGRIKDIRVSVR”, for which the protease stability score is 1.45.

In the case of “EEDFRLVDKFIKDFWKSFRTGDEDLFKKYLDPHVQLEVNGQEIHGREQLSRVLVELIIEFGVDHVEFRLHDWHIYDGQAEHHTHVRLKYGDKNVRRTLHIFMLKVDGRWILESMVIR”, the protease stability score is 1.26. The sequence “DEDEKIVKHMLEVLIHLILTGDWEMFQKLADPNTRLDINGREQVGWESVTKNLEHMRYHDIRSQHIEIQGNKLRNLTRVDGEVDGVRREIEVHIYSTKINGKWRLTSMQFH” registered a protease stability score of 1.1. To “DDEDEHWETLARHFVDNYLTGDWKRLWEMLDPNARLNVNGKEYHGREVIIRVLRKELEDLGVDVVDVEDIRVYGNKVDFHMTVRVGDKERRLEIDVHIVDGRIRKIIIRID” belongs 2.2.
